What was measured:
[1] = molecular target: the molecule itself; assay: cryo-EM of the NPR1-TGA3 complex; self-association
[2] = molecular target: T1, Full-length Arabidopsis NPR1 with C-terminal Strep tag, expressed in E. coli (NPR1-Strep3) (Arabidopsis thaliana, UniProt P93002 1-593); assay: cryo-EM of BS3 cross-linked NPR1-TGA3-LS7 DNA complex
T1 construct: Full-length NPR1; Homodimer; Purified with 0.2 mM salicylic acid; also called WT NPR1; not shown: C-terminal Strep tag (Strep3) with its last Lys mutated to Arg
T1 sequence: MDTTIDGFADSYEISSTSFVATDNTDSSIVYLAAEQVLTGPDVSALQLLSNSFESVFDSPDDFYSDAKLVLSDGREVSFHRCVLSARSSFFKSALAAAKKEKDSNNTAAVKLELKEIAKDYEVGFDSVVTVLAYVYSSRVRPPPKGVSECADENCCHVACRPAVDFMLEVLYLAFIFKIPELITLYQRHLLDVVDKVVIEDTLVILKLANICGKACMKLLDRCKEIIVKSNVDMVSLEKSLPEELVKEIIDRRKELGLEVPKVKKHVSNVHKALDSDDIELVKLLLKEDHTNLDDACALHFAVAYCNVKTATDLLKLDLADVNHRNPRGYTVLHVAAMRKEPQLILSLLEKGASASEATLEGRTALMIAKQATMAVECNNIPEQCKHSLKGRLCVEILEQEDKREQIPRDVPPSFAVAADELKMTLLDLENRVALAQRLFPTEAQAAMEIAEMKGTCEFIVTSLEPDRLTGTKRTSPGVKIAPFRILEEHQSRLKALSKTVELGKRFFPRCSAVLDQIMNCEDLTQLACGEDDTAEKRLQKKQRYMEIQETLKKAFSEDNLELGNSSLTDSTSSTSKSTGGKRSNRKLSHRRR
Protocol: 2. NPR1 TGA3 LS7-DNA cryo-EM sample preparation. The purified NPR1-Strep3 (20 μM), TGA3-Flag-HA (48 μM) and the LS7 DNA containing a palindromic TGA-binding site (underlined in 5′-[…]-3′, 57.6 μM) were mixed and incubated at 4° C. for 30 min. The protein-DNA complex was cross-linked with 1.5 mM BS3 (Thermo Fisher Scientific) at room temperature for 30 min and quenched with 50 mM Tris (pH 8.0). The protein-DNA mixture was further purified using a Strep-Tactin column (Qiagen) and size-exclusion chromatography (Superose 6 in-crease 10/300 GL, Cytiva) in a buffer containing 25 mM HEPES (pH 7.5), 150 mM NaCl, 2 mM DTT and 0.2 mM SA.
3. Cryo-EM sample preparation and data collection. Cryo-EM grids containing the NPR1-TGA3-LS7-DNA complex were prepared using the Leica EM GP2 Automatic Plunge Freezer at 4° C. and 85% humidity. The UltrAuFoil R1.2/1.3 300-mesh grids (Quantifoil) were glow-discharged using the PELCO easiGlow Glow Discharge Cleaning System (Ted Pella). A 3 μl sample of NPR1-TGA3-LS7-DNA (˜1.3 mg/ml) was applied to the grid, incubated for 60 s in the chamber and blotted for 2.4 s with Whatman No. 1 filter paper (Whatman International) to re-move excess sample, and then plunge-frozen into liquid ethane cooled by liquid nitrogen. […]

binding result [2]: binds
B1: Arabidopsis TGA3 (Asn87-Thr384) with C-terminal tandem Flag-HA tag (other, Arabidopsis thaliana, UniProt Q39234 87-384, looked up)
chain: NNDQDEDRINDKMKRRLAQNREAARKSRLRKKAHVQQLEESRLKLSQLEQELVRARQQGLCVRNSSDTSYLGPAGNMNSGIAAFEMEYTHWLEEQNRRVSEIRTALQAHIGDIELKMLVDSCLNHYANLFRMKADAAKADVFFLMSGMWRTSTERFFQWIGGFRPSELLNVVMPYVEPLTDQQLLEVRNLQQSSQQAEEALSQGLDKLQQGLVESIAIQIKVVESVNHGAPMASAMENLQALESFVNQADHLRQQTLQQMSKILTTRQAARGLLALGEYFHRLRALSSLWAARPREHT
notes: range 87-384; E. coli expressed; His10-MBP removed with PreScission protease; two dimers per NPR1 dimer in the full complex; also called TGA3-Flag-HA; not shown: C-terminal tandem Flag-HA tag
binding result [1]: binds
